Laboratory results published in patent publication US20190177709.

Legend:
Assay in all cases: cell_activity
[1] = molecular target: ZFN 65459 (left) F1 Qm14 Qm5, F3 Qm5, F5 Qm5 (R to Q) (synthetic) (UniProt P14870); conditions: with 65526, L:R 60:15 ug RNA, CD34+ cells
[2] = molecular target: ZFN 65526 (right) F1 Qm5, F2 Qm5, F4 Qm5, F5 Qm5 (R to Q); FokI R416S (synthetic) (UniProt P14870); conditions: with 63014, L:R 60:15 ug RNA, CD34+ cells
[3] = molecular target: ZFN 65549 (right) F1 Qm5, F2 Qm5, F3 Qm5, F4 Qm5 (R to Q); FokI K525S (synthetic) (UniProt P14870); conditions: with 63014, 60:60 ug RNA, CD34+ cells; Table 3 gives 79.82
[4] = molecular target: ZFN 65550 (right) F1 Qm5, F2 Qm5, F4 Qm5, F5 Qm5 (R to Q); FokI K525S (synthetic) (UniProt P14870); conditions: with 63014, 60:60 ug RNA, CD34+ cells; Table 3 gives 79.96

Row | Sequence | activity [1] | activity [2] | activity [3] | activity [4]
1 | AAAGCAACTGTTAGCTTGCACTAGACTA (double strand) [BCL11A +58 left half-site] | 76.9 % indels | – | – | –
2 | CACAGGCTCCAGGAAGGGTTTGGCCTCT (double strand) [BCL11A +58 right half-site] | – | 81.2 % indels | 80 % indels | 79.8 % indels
